How the values were obtained:
[1] = test system: PBMCs recovered from patients treated with TroVax; assay: IFNγ ELISPOT with PBMCs from TroVax treated patients; format: cell-based, human; details: for IFNγ ELISPOT response with A2 blocking antibody (clone BB7.2) / A2 restriction: presence of A2 blocking antibody
[2] = target: MHC class I allele A*0101 (A1) (Homo sapiens, UniProt P04439, A114D/A174V/A182V/D101N/D185E/E176A/E190D/L180R/Q94H/R68K/S129P/T187R/V100A/V91M/W191G); assay: iTopia peptide binding assay, A*0101; details: percent of positive control peptide binding; peptide at 1.11×10^−5M
Protocol: (§1) The 9 mers were tested for Peptide Binding, Off Rate and Affinity using iTopia Epitope Discovery System in accordance with the manufacturer's instructions. Briefly, 96 well microtitre plates coated with MHC molecules representing different MHC alleles are used to identify candidate peptides. […] Determinations are performed in duplicate using an ELISA plate reader and included allele specific positive controls.
(§2) i) Peptide Binding—This assay measures the ability of individual peptides to bind to the MHC molecules under standardized optimal binding conditions. The assay is performed for all the test peptides across the selected MHC alleles. The test peptides identified as “binders” are characterized further in terms of affinity and dissociation experiments.
(§3) Following a period of binding under optimal conditions, excess antibody is removed and a measurement of total fluorescence taken (D).
(§4) The binding of the test peptides to the MHC molecules was performed at 1.11×10^−5M of peptide under optimal, standardised test conditions. A control peptide was run in parallel on the same plate and at the same concentration as the test peptides.
(§5) The level of binding is expressed as a percent of positive control peptide binding for each allele.

[3] = target: MHC class I allele A*0201 (A2) (Homo sapiens, UniProt P04439, D140Y/D185E/D98H/E176V/E277Q/G131W/G231S/I119V/I121R/I166T/I218V/L300P/L318F/N151K/N90K/P208A/P217A/Q86G/Q94H/R138H/R169H/T345S); assay: iTopia peptide binding assay, A*0201; details: percent of positive control peptide binding; peptide at 1.11×10^−5M
Protocol: as §1, §2, §3, §4, §5

[4] = target: MHC class I allele A*0301 (A3) (Homo sapiens, UniProt P04439); assay: iTopia peptide binding assay, A*0301; details: percent of positive control peptide binding; peptide at 1.11×10^−5M
Protocol: as §1, §2, §3, §4, §5

[5] = target: MHC class I allele B*0702 (B7) (Homo sapiens, UniProt P01889); assay: iTopia peptide binding assay, B*0702; details: percent of positive control peptide binding; peptide at 1.11×10^−5M
Protocol: as §1, §2, §3, §4, §5

[6] = 10 mer vs 9 mer experiment, absence of A2 blocking antibody, FIG. 14
[7] = PBMCs of patient TV2-018, X+6 wk and X+10 wk, FIG. 11-13

## ARLALVLLGW [10 mer peptide 10]
[1]; [6]
  IFNγ ELISPOT response: no response

## FLTGNQLAVL [10 mer peptide 49]
[1]; [6]
  IFNγ ELISPOT response: response
[1]; [7]
  IFNγ ELISPOT response: capable of inducing an ex-vivo IFNγ response
[1]
  IFNγ ELISPOT response with A2 blocking antibody (clone BB7.2) / A2 restriction: A2 restricted

## MPGGCSRGPA [10 mer peptide 1]
[1]; [6]
  IFNγ ELISPOT response: no response

## NIRDACRDHM [10 mer peptide 194]
[1]; [7]
  IFNγ ELISPOT response: capable of inducing an ex-vivo IFNγ response

## NLFLTGNQLA [10 mer peptide 48]
[1]; [6]
  IFNγ ELISPOT response: no response

## NLTEVPTDLP [10 mer peptide 41]
[1]; [6]
  IFNγ ELISPOT response: no response

## RLARLALVLL [10 mer peptide 9]
[1]; [6]
  IFNγ ELISPOT response: response
[1]; [7]
  IFNγ ELISPOT response: capable of inducing an ex-vivo IFNγ response
[1]
  IFNγ ELISPOT response with A2 blocking antibody (clone BB7.2) / A2 restriction: A2 restricted

## RLRLARLALV [10 mer peptide 8]
[1]; [6]
  IFNγ ELISPOT response: response
[1]; [7]
  IFNγ ELISPOT response: capable of inducing an ex-vivo IFNγ response

## RRPPLAELA [Peptide 57]
[2]
  Peptide binding, MHC Class I Molecule A*0101: 2 % of control
[3]
  Peptide binding, MHC Class I Molecule A*0201: 11 % of control
[4]
  Peptide binding, MHC Class I Molecule A*0301: 2 % of control
[5]
  Peptide binding, MHC Class I Molecule B*0702: 9 % of control

## RTVKCVNRN [Peptide 37]
[2]
  Peptide binding, MHC Class I Molecule A*0101: 7 % of control
[3]
  Peptide binding, MHC Class I Molecule A*0201: 12 % of control
[4]
  Peptide binding, MHC Class I Molecule A*0301: 12 % of control
[5]
  Peptide binding, MHC Class I Molecule B*0702: 3 % of control

## SADLDCDPI [Peptide 170]
[2]
  Peptide binding, MHC Class I Molecule A*0101: 0 % of control
[3]
  Peptide binding, MHC Class I Molecule A*0201: 4 % of control
[4]
  Peptide binding, MHC Class I Molecule A*0301: 4 % of control
[5]
  Peptide binding, MHC Class I Molecule B*0702: 3 % of control

## SAQPPLPDQ [Peptide 27]
[2]
  Peptide binding, MHC Class I Molecule A*0101: 2 % of control
[3]
  Peptide binding, MHC Class I Molecule A*0201: 13 % of control
[4]
  Peptide binding, MHC Class I Molecule A*0301: 0 % of control
[5]
  Peptide binding, MHC Class I Molecule B*0702: 3 % of control

## SEAARTVKC [Peptide 35]
[2]
  Peptide binding, MHC Class I Molecule A*0101: 5 % of control
[3]
  Peptide binding, MHC Class I Molecule A*0201: 1 % of control
[4]
  Peptide binding, MHC Class I Molecule A*0301: 0 % of control
[5]
  Peptide binding, MHC Class I Molecule B*0702: 0 % of control

## SFRNLTHLE [Peptide 127]
[2]
  Peptide binding, MHC Class I Molecule A*0101: 1 % of control
[3]
  Peptide binding, MHC Class I Molecule A*0201: 1 % of control
[4]
  Peptide binding, MHC Class I Molecule A*0301: 1 % of control
[5]
  Peptide binding, MHC Class I Molecule B*0702: 0 % of control

## SGSNASVSA [Peptide 82]
[2]
  Peptide binding, MHC Class I Molecule A*0101: 5 % of control
[3]
  Peptide binding, MHC Class I Molecule A*0201: 15 % of control
[4]
  Peptide binding, MHC Class I Molecule A*0301: 3 % of control
[5]
  Peptide binding, MHC Class I Molecule B*0702: 11 % of control

## SLRQLDLSH [Peptide 72]
[2]
  Peptide binding, MHC Class I Molecule A*0101: 0 % of control
[3]
  Peptide binding, MHC Class I Molecule A*0201: 6 % of control
[4]
  Peptide binding, MHC Class I Molecule A*0301: 11 % of control
[5]
  Peptide binding, MHC Class I Molecule B*0702: 13 % of control

## SSSPTSSAS [Peptide 16]
[2]
  Peptide binding, MHC Class I Molecule A*0101: 4 % of control
[3]
  Peptide binding, MHC Class I Molecule A*0201: 7 % of control
[4]
  Peptide binding, MHC Class I Molecule A*0301: 2 % of control
[5]
  Peptide binding, MHC Class I Molecule B*0702: 8 % of control

## TDLPAYVRN [Peptide 44]
[2]
  Peptide binding, MHC Class I Molecule A*0101: 7 % of control
[3]
  Peptide binding, MHC Class I Molecule A*0201: 3 % of control
[4]
  Peptide binding, MHC Class I Molecule A*0301: 1 % of control
[5]
  Peptide binding, MHC Class I Molecule B*0702: 2 % of control

## TEVPTDLPA [Peptide 42]
[2]
  Peptide binding, MHC Class I Molecule A*0101: 3 % of control
[3]
  Peptide binding, MHC Class I Molecule A*0201: 7 % of control
[4]
  Peptide binding, MHC Class I Molecule A*0301: 0 % of control
[5]
  Peptide binding, MHC Class I Molecule B*0702: 0 % of control

## TGNQLAVLPA [10 mer peptide 50]
[1]; [6]
  IFNγ ELISPOT response: no response

## VKCVNRNLT [Peptide 38]
[2]
  Peptide binding, MHC Class I Molecule A*0101: 6 % of control
[3]
  Peptide binding, MHC Class I Molecule A*0201: 3 % of control
[4]
  Peptide binding, MHC Class I Molecule A*0301: 0 % of control
[5]
  Peptide binding, MHC Class I Molecule B*0702: 2 % of control

## VQGKDRLTC [Peptide 158]
[2]
  Peptide binding, MHC Class I Molecule A*0101: 0 % of control
[3]
  Peptide binding, MHC Class I Molecule A*0201: 4 % of control
[4]
  Peptide binding, MHC Class I Molecule A*0301: 6 % of control
[5]
  Peptide binding, MHC Class I Molecule B*0702: 6 % of control

## VRNLFLTGN [Peptide 47]
[2]
  Peptide binding, MHC Class I Molecule A*0101: 0 % of control
[3]
  Peptide binding, MHC Class I Molecule A*0201: 5 % of control
[4]
  Peptide binding, MHC Class I Molecule A*0301: 0 % of control
[5]
  Peptide binding, MHC Class I Molecule B*0702: 3 % of control

## VSAPSPLVE [Peptide 85]
[2]
  Peptide binding, MHC Class I Molecule A*0101: 3 % of control
[3]
  Peptide binding, MHC Class I Molecule A*0201: 13 % of control
[4]
  Peptide binding, MHC Class I Molecule A*0301: 7 % of control
[5]
  Peptide binding, MHC Class I Molecule B*0702: 3 % of control

## VSSSSPTSS [Peptide 15]
[2]
  Peptide binding, MHC Class I Molecule A*0101: 3 % of control
[3]
  Peptide binding, MHC Class I Molecule A*0201: 9 % of control
[4]
  Peptide binding, MHC Class I Molecule A*0301: 2 % of control
[5]
  Peptide binding, MHC Class I Molecule B*0702: 2 % of control

## VVAALLAGR [Peptide 100]
[2]
  Peptide binding, MHC Class I Molecule A*0101: 9 % of control
[3]
  Peptide binding, MHC Class I Molecule A*0201: 11 % of control
[4]
  Peptide binding, MHC Class I Molecule A*0301: 49 % of control
[5]
  Peptide binding, MHC Class I Molecule B*0702: 7 % of control

## YHYRYEINA [Peptide 200]
[2]
  Peptide binding, MHC Class I Molecule A*0101: 0 % of control
[3]
  Peptide binding, MHC Class I Molecule A*0201: 7 % of control
[4]
  Peptide binding, MHC Class I Molecule A*0301: 1 % of control
[5]
  Peptide binding, MHC Class I Molecule B*0702: 5 % of control

## YRYEINADP [Peptide 201]
[2]
  Peptide binding, MHC Class I Molecule A*0101: 0 % of control
[3]
  Peptide binding, MHC Class I Molecule A*0201: 0 % of control
[4]
  Peptide binding, MHC Class I Molecule A*0301: 1 % of control
[5]
  Peptide binding, MHC Class I Molecule B*0702: 3 % of control

Reference: patent US8147838B2, “Peptide” (priority 2005, dated 2012)
